Measurements reported in the PETadex activity labels (doi:10.1016/s0014-5793(99)00813-3).
Substitutions are numbered along the chain they refer to.

Substrate: p-NP-C4
Details: pH 7.1; 25 °C

B1: unnamed (protein)
chain: MKPENKLPVLDLISAEMKTVVNTLQPDLPPWPATGTIAEQRQYYTLERRFWNAGAPEMATRAYMVPTKYGQVETRLFCPQPDSPATLFYLHGGGFILGNLDTHDRIMRLLASYSQCTVIGIDYTLSPEARFPQAIEEIVAACCYFHQQAEDYQINMSRIGFAGDSAGAMLALASALWLRDKQIDCGKVAGVLLWYGLYGLRDSVTRRLLGGVWDGLTQQDLQMYEEAYLSNDADRESPYYCLFNNDLTREVPPCFIAGAEFDPLLDDSRLLYQTLAAHQQPCEFKLYPGTLHAFLHYSRMMKTADEALRDGAQFFTAQL
Question: What does the source list for B1?
Answer: Km: 500 µM; kcat: 30.9 s⁻¹; kcat/Km: 61800 M⁻¹ s⁻¹

B2: unnamed (protein)
chain: B1 chain with H103N
Question: For B2, which Km is on record?
Answer: The Km was 250 µM.

Question: What about the kcat of the same protein?
Answer: Its kcat is 12.1 s⁻¹.

Question: What about the kcat/Km of the same protein?
Answer: The kcat/Km was 48400 M⁻¹ s⁻¹.

B3: unnamed (protein)
chain: B1 chain with D164A
Question: What does the source list for B3?
Answer: Km: 1000 µM; kcat: 0.007 s⁻¹; kcat/Km: 7 M⁻¹ s⁻¹

B4: unnamed (protein)
chain: B1 chain with E128Q
Question: For B4, which Km is on record?
Answer: Its Km is 350 µM.

Question: And the kcat?
Answer: Its kcat is 7.4 s⁻¹.

Question: What about the kcat/Km of the same protein?
Answer: Its kcat/Km is 21100 M⁻¹ s⁻¹.

B5: unnamed (protein)
chain: B1 chain with D266A
Question: B5 was tested. Which Km did it give?
Answer: The Km was 500 µM.

Question: And the kcat?
Answer: Its kcat is 3.4 s⁻¹.

Question: What about the kcat/Km of the same protein?
Answer: Its kcat/Km is 6800 M⁻¹ s⁻¹.

B6: unnamed (protein)
chain: B1 chain with G163A
Question: With B6 as the protein, how does the Km read?
Answer: The Km was 500 µM.

Question: And the kcat?
Answer: The kcat was 2.9 s⁻¹.

Question: What about the kcat/Km of the same protein?
Answer: The kcat/Km was 5800 M⁻¹ s⁻¹.

B7: unnamed (protein)
chain: B1 chain with D262A
Question: What does the source list for B7?
Answer: Km: 400 µM; kcat: 0.034 s⁻¹; kcat/Km: 85 M⁻¹ s⁻¹

B8: unnamed (protein)
chain: B1 chain with G167A
Question: How did the Km turn out when B8 was run?
Answer: The Km was 2000 µM.

Question: What about the kcat of the same protein?
Answer: Its kcat is 49.4 s⁻¹.

Question: And the kcat/Km?
Answer: Its kcat/Km is 24700 M⁻¹ s⁻¹.
